What was measured:
Conditions in all cases: both partners purified
[1] = target: T1, SARS-CoV-2 Spike Glycoprotein (S1) His-Tagged RBD (SARS-CoV-2, UniProt P0DTC2); test: BLI
T1 construct: source: bought: The Native Antigen Company (REC31849), produced in HEK293 cells

[2] = target: pancreatic bovine trypsin (Bos taurus, UniProt P00760); test: BLI; His-tagged DesAb (7.5 μM) loaded to saturation on Ni-NTA sensors, trypsin in solution; 170 mM NaCl, 50 mM tris-HCl, 10 mM MgCl2 pH 7.4; 25°C
human serum albumin [3] = target: T2, human serum albumin (Homo sapiens, UniProt P02768); test: BLI; HSA (4 μM) loaded on APS sensors; DesAbs at 1 μM, 500 nM and 250 nM (Nb.B201 at 800 and 400 nM); 170 mM NaCl, 50 mM tris-HCl, 10 mM MgCl2 pH 7.4; 25°C; global fit, Kd = Koff/Kon
T2 construct: also called HSA

[4] = target: T1, SARS-CoV-2 Spike Glycoprotein (S1) …; test: BLI; remark: listed apart in the source
human serum albumin [5] = target: T2, human serum albumin; test: BLI; HSA (4 μM) loaded on APS sensors; DesAbs at 1 μM, 500 nM and 250 nM (Nb.B201 at 800 and 400 nM); 170 mM NaCl, 50 mM tris-HCl, 10 mM MgCl2 pH 7.4; 25°C; global fit, Kd = Koff/Kon; remark: listed apart in the source
human serum albumin [6] = target: T2, human serum albumin; test: BLI
human serum albumin [7] = target: T2, human serum albumin; test: BLI; remark: listed apart in the source

Sequence of pancreatic bovine trypsin (P00760 24-246): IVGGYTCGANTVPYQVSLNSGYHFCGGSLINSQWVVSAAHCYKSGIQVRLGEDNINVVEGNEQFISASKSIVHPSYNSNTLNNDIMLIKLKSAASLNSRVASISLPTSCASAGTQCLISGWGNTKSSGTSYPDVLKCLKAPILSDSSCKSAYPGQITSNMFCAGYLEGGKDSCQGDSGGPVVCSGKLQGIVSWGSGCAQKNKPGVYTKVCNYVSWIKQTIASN

B1: DesAb-Tryp (VHH)
VHH: EVQLEESGGGLVQPGGSLRLSCAASGFNIKDTYIGWVRQAPGKGEEWVASIYPTSGYTRYADSVKGRFTISADTSKNTAYLQMNSLRAEDTAVYYCAAGSQSGYHFEEFDYWGQGTLVTVSS
Q: What does the source list for B1?
A: binding result [1]: no binding (tested: 4 μM); Kd [2]: 1800 nM; binding result (human serum albumin [3]): no binding (tested: 1 μM)

B2: DesAb-RBD-C2 (VHH)
VHH: EVQLEESGGGLVQPGGSLRLSCAASGFNIKDTYIGWVRQAPGKGEEWVASIYPTSGYTRYADSVKGRFTISADTSKNTAYLQMNSLRAEDTAVYYCAAGSVVADLSVEEFDYWGQGTLVTVSS
Q: How did the Kd [4] turn out when B2 was run?
A: 130 nM

B3: DesAb-HSA-P2 (VHH)
VHH: EVQLEESGGGLVQPGGSLRLSCAASGFNIKDTYIGWVRQAPGKGEEWVASIYPTSGYTRYADSVKGRFTISADTSKNTAYLQMNSLRAEDTAVYYCAAGSAQAGNAEEAEEEFDYWGQGTLVTVSS
Q: How did the Kd (human serum albumin [5]) turn out when B3 was run?
A: 380 nM

B4: Nb.B201 (VHH)
VHH: QVQLQESGGGLVQAGGSLRLSCAASGYISDAYYMGWYRQAPGKEREFVATITHGTNTYYADSVKGRFTISRDNAKNTVYLQMNSLKPEDTAVYYCAVLETRSYSFRYWGQGTQVTVSS
notes: also called yeast display-derived anti-HSA nanobody
Q: Does B4 bind (human serum albumin [6])?
A: binds

B5: DesAb-HSA-D3 (VHH)
VHH: EVQLQESGGGLVQAGGSLRLSCAASGELYALISMGWFRQAPGKEREFVAAISRNGDNTYYTDSVKGRFTISRDNAKNTVELQMNSLKPEDTAVYYCAADKFASPDGSVTIMTNEYDYWGQGTQVTVSD
Q: For B5, which Kd (human serum albumin [7]) is on record?
A: 180 nM

B6: DesAb-RBD-C1 (VHH)
VHH: EVQLEESGGGLVQPGGSLRLSCAASGFNIKDTYIGWVRQAPGKGEEWVASIYPTSGYTRYADSVKGRFTISADTSKNTAYLQMNSLRAEDTAVYYCAAGSGSSATEVYEEFDYWGQGTLVTVSS
Q: B6 was tested. Which Kd [4] did it give?
A: 210 nM

B7: DesAb-HSA-P1 (VHH)
VHH: EVQLEESGGGLVQPGGSLRLSCAASGFNIKDTYIGWVRQAPGKGEEWVASIYPTSGYTRYADSVKGRFTISADTSKNTAYLQMNSLRAEDTAVYYCAAGSIQKSLQTAESILEEFDYWGQGTLVTVSS
Q: For B7, which Kd (human serum albumin [7]) is on record?
A: 120 nM

From PMC9651861 (Science Advances, 2022)
